The text below walks through data of paper PMC8710476.

The target in assay [1] is CB6 (class I).
Assay [2] deals with BD368-2 (class II).
Assay [3] concerns the target REGN10933 (class I).

Consider “SARS-CoV-2 full-length spike, WT D614G, expressed on the cell surface (from UniProt P0DTC2) Alpha (B.1.1.7)”, for which the ratio to parent in assay [1] stood at 2.7 fold; in assay [2], 1.3 fold.

As to “SARS-CoV-2 full-length spike, WT D614G, expressed on the cell surface (from UniProt P0DTC2) Beta (B.1.351)”, the ratio to parent in assay [3] was -3.2 fold; in assay [1], -76.3 fold; in assay [2], -569 fold.

For “SARS-CoV-2 full-length spike, WT D614G, expressed on the cell surface (from UniProt P0DTC2) Gamma (P.1)”, in assay [1], the ratio to parent is -266 fold.
